# According to paper PMC10845952, “Mass spectrometry and split luciferase complementation assays reveal the MecA protein interactome of Streptococcus mutans” (Microbiology Spectrum, 2024):
# B1: XseA fused to the RenG C-terminal domain (156-314) (natural protein, S. mutans, UniProt Q8DVB5 1-447, looked up)
# chain: MSDYLSVSSLTKYLKLKFDRDPYLERVYLTGQVSNFRRRPNHQYFSLKDEKAVIQATMWSGIYRKLGFELEEGMKINVIGRVQLYEPSGSYSIIIEKAEPDGIGALAVQFEQLKKKLAEAGYFDDRHKQRLSQFVKKIGVVTSPSGAVIRDIITTVSRRFPGVDILLFPTKVQGEGAAQEVADNIRLANERTDLDLLIVGRGGGSIEDLWAFNEEIVVQAIFESHLPIISSVGHETDTTLADFAADRRAATPTAAAELATPVTKADLLAFLKERQMRSYQAVMRLIRQKDEQVKKLQRSVIFRQPERLYDAYVQKLDHLRTHLLTKVRQVYDVYDSKEHLLRQRLLSFNLSGCIQRYQAQLKQDQRLLLSHMSSQYDSKLARFEKAQDALLSLDTTRIVARGYAIVQKDNHIIQSTQQIKKGDRLHLEMKDGQVQVEVENVKQEENI
# notes: Exodeoxyribonuclease VII large subunit, XseA; S. mutans UA159; not shown: RenG luciferase C-terminal domain (156-314), C-terminal, kept
# B2: DnaG with the RenG C-terminal domain (156-314) fused to its N-terminus (natural protein, S. mutans, UniProt Q8DUS6 1-592, looked up)
# chain: MVVDKEKIKEIKDSINIVDVIGEVVSLSRSGRNYLGLCPFHKEKTPSFNVIEDRQFFHCFGCGRSGDVFKFVEDYRNISFLESVQVLAERSGINVTLQDKSQEVKKEHPHQKLFNINGDANKFYQAVLKTTKVGETARQYLYERGLTDELITYFKIGLAPNEYDYLYQAMLKKYDEDTIINSGLFNLSDSNSIYDAFRNRIMFPLTDEFGHIIGFSGRIWTEEDTSKKLAKYKNTRSTIIFNKSYELYHLDKARTAAKKEHELYLMEGFMDVIAAYRAGIPNAVASMGTALTPEHVKHLRKFTKKVILTYDGDKAGQNAIAKSLNLLSNMAVEIVRIPGQMDPDEFIKENSEEELEKLLKQARISSAEFWIEHLKPENIDNLQAEIDYVEKIAKVIAASPSITAQNTYINKVAEFLPDFDYLQVEQAVNNERLQMRSQISEQESANQQVLIDLPVTKQLTALTKAESQLFHRLLHHDYLLNEFRNRAHFKFTTPELQELYQILKTNGEINAYDLSQLSNQLQETYYRVLEENLPEEIAEDEIRQIEDQIDKCLQRQEMRKQSKAIRESSNHGDVDTAVEGLAALIAQKRNME
# notes: also called N-DnaG
# B3: ThiI fused to the RenG C-terminal domain (156-314) (natural protein, S. mutans, UniProt Q8DUR1 1-405, looked up)
# chain: MQYSEIMVRYGELSTKGKNRMRFINQLKRNMKHVLSIYPEVSIRADRDRAHIYLNGANYVPVAESLKQIFGIQAFSPSYKVEKSVPALEKAVQAIMVELHHEGLTFKISSKRSDHQFELDSRELNQVLGSAVFAVLPDIKAQMNHPNVNLKVEIREEAAYLSYENIKGAGGLPVGTAGKGMLMLSGGIDSPVAGYLALKRGVNIEAVHFASPPYTSPGALKKAQDLTRKLTKFGGNIQFIEVPFTEIQEEIKAKAPEAYLMTLTRRFMMRIADRIREERSGLVIINGESLGQVASQTLESMQAINAVTTTPVIRPVVTMDKLEIIDIAEKIDTFAISIQPFEDCCTIFAPDRPKTNPKIKNVEQYEARLDIEGLVARAVAGINITEITPQEESQDEVDVLIEDLL
# notes: tRNA 4-thiouridine(8) synthase, ThiI; S. mutans UA159; also called Thil; not shown: RenG luciferase C-terminal domain (156-314), C-terminal, kept
# Biological target: T1, MecA fused to the RenG N-terminal domain (1-155) (S. mutans, UniProt Q8DW33 1-240)
# T1 construct: adaptor protein MecA; S. mutans UA159; source: S. mutans, expressed in live cells; not shown: RenG luciferase N-terminal domain (1-155), C-terminal, kept
# T1 sequence: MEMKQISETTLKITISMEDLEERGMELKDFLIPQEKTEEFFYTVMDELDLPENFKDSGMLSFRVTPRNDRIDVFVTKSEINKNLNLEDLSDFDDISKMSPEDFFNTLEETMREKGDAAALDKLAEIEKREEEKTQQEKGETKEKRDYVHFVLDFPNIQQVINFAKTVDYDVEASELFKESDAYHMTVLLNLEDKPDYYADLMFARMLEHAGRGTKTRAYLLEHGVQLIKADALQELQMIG
# Assay: split reporter (BiFC, NanoBiT)
# Conditions: partners not purified
row,Binder,relative binding affinity (%)
1,B1,3.16 ± 0.25
2,B2,6.97 ± 0.32
3,B3,8.92 ± 1.07
